Assay results taken from patent US20260184758A1 (CUE BIOPHARMA, published 2026).

Assays:
[1] = molecular target: T1, construct 4276 (single-chain TMP: NKG2 peptide …, β2M polypeptide, HLA-E heavy chain polypeptide, Ig Fc …); assay: BLI (Octet HTX), biotinylated receptor on streptavidin biosensor, bivalent TMP as analyte, kinetic analysis
Source text: (§1) Streptavidin-coated biosensors were used to immobilize biotinylated NKG2A/CD94 heterodimers, or biotinylated NKG2C/CD94 heterodimers.

[2] = molecular target: T1, construct 4276 (single-chain TMP: NKG2 …); assay: BLI (Octet HTX), biotinylated receptor on streptavidin biosensor, bivalent TMP as analyte, steady state Kd (avidity)
Source text: as §1

B1: biotinylated NKG2A/CD94 heterodimer (receptor)
chain 1: not shown
chain 2: KNSFTKLSIEPAFTPGPNIELQKDSDCCSCQEKWVGYRCNCYFISSEQKTWNESRHLCASQKSSLLQLQNTDELDFMSSSQQFYWIGLSYSEEHTAWLWENGSALSQYLFPSFETFNTKNCIAYNPNGNALDESCEDKNRYICKQQLI
notes: Biotinylated heterodimer immobilized on streptavidin-coated biosensors; also called CD94/NKG2A receptor; NKG2A/CD94 complex
koff [1]: 0.04 s⁻¹
Kd [2]: 57 nM

B2: biotinylated NKG2C/CD94 heterodimer (receptor)
chain 1: not shown
chain 2: B1 chain 2
notes: Biotinylated heterodimer immobilized on streptavidin-coated biosensors; also called CD94/NKG2C receptor
koff [1]: 0.053 s⁻¹
Kd [2]: 55 nM
